Experimental data published in patent US20250092119A1.

These substances were tested against human neutrophil elastase (human) (UniProt P08246) (assay: cell-based or functional assay). Conditions: scale: moles of AAT polypeptide per mole of protease.
Sequence of UniProt P08246 (P08246 30-247 limits assumed): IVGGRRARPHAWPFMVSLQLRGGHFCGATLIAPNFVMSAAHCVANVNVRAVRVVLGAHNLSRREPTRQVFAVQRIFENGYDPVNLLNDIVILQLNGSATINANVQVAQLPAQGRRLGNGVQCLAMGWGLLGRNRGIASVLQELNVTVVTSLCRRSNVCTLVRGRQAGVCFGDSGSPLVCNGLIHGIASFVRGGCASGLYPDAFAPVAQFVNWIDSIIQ

Row | SI against HNE (n = 3) | Substance
1 | 1.09 | Breach graft (wtAAT carrying S276K, T278E, T323E, D325N, K327E) (from UniProt P01009 41-418)
2 | 1.11 | F35 graft (wtAAT carrying L275F, I324V, M358I) (from UniProt P01009 41-418)
3 | 1.35 | Helix-F graft (wtAAT carrying G99A, Y144W, Y171A) (from UniProt P01009 41-418)
